This test concerns the target acetylcholine receptor (Homo sapiens, UniProt P02708). As to the kind of experiment: SPR binding affinity (RU) of optimized 5mer/6mer/7mer peptides, Examples 6-7. The following applies: SPR, peptides tested at 10 μM. The essentials:
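Response units from SPR give the binding values listed. Each synthesized peptide was run at 10 μM over the receptor.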
Background: Surface plasmon resonance follows binding to a sensor surface in real time, without labels.

Setting [1] is: Resonance Units, 6mer-2 Top sequence (Table 12).

Data on 131 substances can be found in patent US20250011363A1, “OPTIMIZED SHORTENED PEPTIDE THAT BINDS TO ACETYLCHOLINE RECEPTOR, AND USE THEREOF” (SKINMED CO., LTD., priority 2021, published 2025).

acetylcholine receptor, sequence (P02708 21-457): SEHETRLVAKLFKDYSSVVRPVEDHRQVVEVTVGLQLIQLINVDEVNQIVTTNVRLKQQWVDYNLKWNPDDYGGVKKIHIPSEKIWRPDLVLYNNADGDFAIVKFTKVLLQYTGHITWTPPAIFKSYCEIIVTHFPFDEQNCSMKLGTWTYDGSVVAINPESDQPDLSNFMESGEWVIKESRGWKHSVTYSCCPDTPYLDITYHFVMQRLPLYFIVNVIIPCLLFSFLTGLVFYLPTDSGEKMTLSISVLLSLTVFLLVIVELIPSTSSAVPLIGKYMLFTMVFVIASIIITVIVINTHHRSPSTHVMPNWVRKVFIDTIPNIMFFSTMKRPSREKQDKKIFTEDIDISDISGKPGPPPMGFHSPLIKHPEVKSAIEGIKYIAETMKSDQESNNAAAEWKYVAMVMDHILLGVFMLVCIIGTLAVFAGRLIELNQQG

As for 6mer-2-114 (KLQYRK), for the setting “6mer-2 Top sequence”, the Binding affinity was 121 Ru. For the substance 6mer-2-115 (KWQYRK), for the setting “6mer-2 Top sequence”, the Binding affinity is recorded as 144 Ru.

On to 6mer-2-116 (KLQRKK), for which, under “6mer-2 Top sequence”, the Binding affinity was 126 Ru.

For the substance 6mer-2-117 (KRYTRK), where the note is “6mer-2 Top sequence”, the Binding affinity came out at 148 Ru. On the same count and under the same terms, as for 6mer-2-118 (KWFSRR), the figure is 135 Ru; as for 6mer-2-119 (RSISKK), 139 Ru; as for 6mer-2-120 (RRQCRK), 146 Ru.

For the substance 6mer-2-121 (KRVYRK), the Binding affinity (6mer-2 Top sequence) was 137 Ru.

On to 6mer-2-122 (RVITKK), for which the Binding affinity (6mer-2 Top sequence) was 125 Ru. On the same count and under the same terms, then 6mer-2-123 (RQFTKR), with 146 Ru. As to 6mer-2-124 (KWQLKR), the Binding affinity (6mer-2 Top sequence) amounted to 126 Ru. With 6mer-2-125 (KVQLRR), the Binding affinity (6mer-2 Top sequence) is reported as 142 Ru.

As to 6mer-2-126 (KWLYRR), the Binding affinity (6mer-2 Top sequence) is 148 Ru. 6mer-2-127 (RLYLRK): the Binding affinity (6mer-2 Top sequence) came out at 136 Ru. The same measure, in the same setting: then 6mer-2-128 (KSYYRR), with 147 Ru; and 6mer-2-129 (KSVLRK), with 139 Ru. Take 6mer-2-130 (RGVCRR): the Binding affinity (6mer-2 Top sequence) is recorded as 122 Ru. With 6mer-2-131 (KQQTKR), the Binding affinity (6mer-2 Top sequence) was determined as 148 Ru. Same read-out and setting: then 6mer-2-132 (KLYCKK), with 139 Ru; and 6mer-2-133 (KRRLKK), with 145 Ru; and 6mer-2-134 (RLFQRK), with 148 Ru.

With 6mer-2-135 (RWFYKK), the Binding affinity (6mer-2 Top sequence) amounted to 124 Ru.

6mer-2-137 (KVFCKK): the Binding affinity (6mer-2 Top sequence) is 135 Ru. Still for that read-out and setting: as for 6mer-2-138 (KQRRRK), the figure is 153 Ru. Same read-out and setting: as for 6mer-2-139 (KLFRKK), the figure is 149 Ru; as for 6mer-2-140 (KGRLKK), 142 Ru; as for 6mer-2-141 (KWYQKK), 154 Ru. As to 6mer-2-142 (RWVLRR), the Binding affinity (6mer-2 Top sequence) amounted to 121 Ru.

As to 6mer-2-143 (RRVCRR), the Binding affinity (6mer-2 Top sequence) was 128 Ru.

In the case of 6mer-2-144 (KSIRRK), the Binding affinity (6mer-2 Top sequence) is on record as 133 Ru. The same measure, in the same setting: then 6mer-2-145 (RQYYKK), with 128 Ru. As to 6mer-2-146 (KQLLKR), the Binding affinity (6mer-2 Top sequence) turned out to be 135 Ru. Same read-out and setting: as for 6mer-2-147 (RQYTKR), the figure is 133 Ru; as for 6mer-2-148 (KGQYKK), 145 Ru. Take 6mer-2-149 (KGQQRK): the Binding affinity (6mer-2 Top sequence) was 127 Ru. The same measure, in the same setting: as for 6mer-2-150 (KRILKR), the figure is 136 Ru. 6mer-2-151 (KQLRKR): where the note is “6mer-2 Top sequence”, the Binding affinity was 142 Ru.

For the substance 6mer-2-152 (RQFYKR), the Binding affinity (6mer-2 Top sequence) turned out to be 139 Ru.

With 6mer-2-153 (RVYSRR), the Binding affinity (6mer-2 Top sequence) was found to be 124 Ru. On the same count and under the same terms, then 6mer-2-154 (KRVTKR), with 148 Ru. Consider 6mer-2-155 (KGVYKK), for which the Binding affinity (6mer-2 Top sequence) was 139 Ru. On the same count and under the same terms, as for 6mer-2-156 (KGLQRR), the figure is 127 Ru. As to 6mer-2-157 (RSYRKK), the Binding affinity (6mer-2 Top sequence) was 153 Ru. Regarding 6mer-2-158 (RSFLRR), the Binding affinity (6mer-2 Top sequence) stood at 145 Ru. The same measure, in the same setting: as for 6mer-2-159 (RQYYRK), the figure is 127 Ru.

6mer-2-160 (RVRRKK): the Binding affinity (6mer-2 Top sequence) is 121 Ru.

As to 6mer-2-161 (KWRRKK), the Binding affinity (6mer-2 Top sequence) is 154 Ru. Turning to 6mer-2-162 (KVISKR), the Binding affinity (6mer-2 Top sequence) stood at 136 Ru. On the same count and under the same terms, then 6mer-2-163 (KWFYRR), with 149 Ru. Same read-out and setting: then 6mer-2-164 (KRQRRK), with 135 Ru. On to 6mer-2-165 (KWFTRR), for which, where the note is “6mer-2 Top sequence”, the Binding affinity was 139 Ru.

Turning to 6mer-2-166 (RWLRKR), where the note is “6mer-2 Top sequence”, the Binding affinity came out at 125 Ru. Turning to 6mer-2-167 (KLFQKR), for the setting “6mer-2 Top sequence”, the Binding affinity is reported as 145 Ru.

In the case of 6mer-2-168 (RVFLKR), the Binding affinity (6mer-2 Top sequence) is on record as 135 Ru.

For the substance 6mer-2-169 (KRQSRR), the Binding affinity (6mer-2 Top sequence) stood at 123 Ru.

In the case of 6mer-2-170 (RQYQKK), the Binding affinity (6mer-2 Top sequence) is listed as 128 Ru. On to 6mer-2-171 (RQQTRR), for which the Binding affinity (6mer-2 Top sequence) is on record as 139 Ru. Consider 6mer-2-172 (KVIRKK), for which the Binding affinity (6mer-2 Top sequence) came out at 128 Ru. Same read-out and setting: then 6mer-2-173 (RQQCKK), with 127 Ru; and 6mer-2-174 (KLLRKR), with 142 Ru; and 6mer-2-175 (KVYLRK), with 137 Ru. The same measure, in the same setting: then 6mer-2-176 (RWIYRR), with 144 Ru. Same read-out and setting: as for 6mer-2-177 (RSVTKK), the figure is 136 Ru; as for 6mer-2-178 (KWLLRR), 133 Ru. Turning to 6mer-2-179 (RRVYRR), the Binding affinity (6mer-2 Top sequence) was determined as 121 Ru.

As to 6mer-2-180 (RLRLKR), the Binding affinity (6mer-2 Top sequence) was found to be 142 Ru. Same read-out and setting: then 6mer-2-181 (RWQQKK), with 139 Ru; and 6mer-2-182 (KLFYKK), with 139 Ru; and 6mer-2-183 (RLQLRR), with 154 Ru. Same read-out and setting: as for 6mer-2-184 (KWVSRR), the figure is 136 Ru. In the case of 6mer-2-185 (RGYQKR), under “6mer-2 Top sequence”, the Binding affinity is reported as 137 Ru. On to 6mer-2-186 (KQICRK), for which the Binding affinity (6mer-2 Top sequence) is recorded as 127 Ru. The same measure, in the same setting: as for 6mer-2-187 (KRRRRK), the figure is 145 Ru. In the case of 6mer-2-188 (RGYTKR), the Binding affinity (6mer-2 Top sequence) was 142 Ru.

Turning to 6mer-2-189 (RWQCKK), the Binding affinity (6mer-2 Top sequence) is recorded as 121 Ru. The same measure, in the same setting: then 6mer-2-190 (KVYLKR), with 148 Ru; and 6mer-2-191 (RQLLKR), with 154 Ru. Same read-out and setting: then 6mer-2-192 (RWFSKK), with 133 Ru; and 6mer-2-193 (KWISKR), with 127 Ru; and 6mer-2-194 (KLRLRK), with 154 Ru. Turning to 6mer-2-195 (KSRQKR), the Binding affinity (6mer-2 Top sequence) came out at 154 Ru. For 6mer-2-196 (KSQRKK), the Binding affinity (6mer-2 Top sequence) came out at 121 Ru.

6mer-2-197 (RGQYRR): where the note is “6mer-2 Top sequence”, the Binding affinity was determined as 126 Ru.

Take 6mer-2-198 (KWYYRK): the Binding affinity (6mer-2 Top sequence) came to 139 Ru.

Consider 6mer-2-199 (RGQYKR), for which, for the setting “6mer-2 Top sequence”, the Binding affinity came to 137 Ru. For the substance 6mer-2-200 (RGVQRK), under “6mer-2 Top sequence”, the Binding affinity is given as 121 Ru. The same measure, in the same setting: as for 6mer-2-201 (KLFLRR), the figure is 148 Ru.

As for 6mer-2-202 (RLIYKK), under “6mer-2 Top sequence”, the Binding affinity amounted to 122 Ru. On to 6mer-2-203 (KSRTKR), for which, under setting [1], the Binding affinity stood at 135 Ru.

On to 6mer-2-204 (RRVQKR), for which the Binding affinity under setting [1] amounted to 142 Ru. Turning to 6mer-2-205 (KSFQRK), under setting [1], the Binding affinity is recorded as 147 Ru. On to 6mer-2-206 (KWQYKK), for which the Binding affinity under setting [1] is 148 Ru.

In the case of 6mer-2-207 (KWVSKR), the Binding affinity under setting [1] was found to be 153 Ru. As for 6mer-2-208 (RSQQRK), the Binding affinity under setting [1] turned out to be 128 Ru. On to 6mer-2-209 (RLYYRK), for which the Binding affinity under setting [1] stood at 148 Ru. Same read-out and setting: then 6mer-2-210 (RSQSRR), with 128 Ru. The same measure, in the same setting: as for 6mer-2-211 (RGLSRR), the figure is 135 Ru; as for 6mer-2-212 (KWQLRR), 148 Ru; as for 6mer-2-213 (KSILRR), 142 Ru. For 6mer-2-214 (RWRSRK), the Binding affinity under setting [1] amounted to 139 Ru. 6mer-2-215 (RLYYRR): the Binding affinity under setting [1] is 123 Ru. As for 6mer-2-216 (KGILKK), the Binding affinity under setting [1] is listed as 126 Ru.

6mer-2-217 (KLFQKK): the Binding affinity under setting [1] was 135 Ru. Regarding 6mer-2-218 (KGVSKK), the Binding affinity under setting [1] was found to be 147 Ru.

On to 6mer-2-219 (RGVSKR), for which, under setting [1], the Binding affinity turned out to be 153 Ru. Consider 6mer-2-220 (KVYSKR), for which the Binding affinity under setting [1] is listed as 135 Ru.

Turning to 6mer-2-221 (KQVRKK), the Binding affinity under setting [1] is on record as 153 Ru. The same measure, in the same setting: as for 6mer-2-222 (RVVYRK), the figure is 127 Ru; as for 6mer-2-223 (KQLTRR), 142 Ru.

With 6mer-2-224 (RLFLKR), under setting [1], the Binding affinity is reported as 148 Ru. 6mer-2-225 (KRLLRR): under setting [1], the Binding affinity worked out at 145 Ru.

Turning to 6mer-2-226 (RLLCKR), the Binding affinity under setting [1] worked out at 154 Ru. On the same count and under the same terms, then 6mer-2-227 (KLQRRK), with 147 Ru; and 6mer-2-228 (KGQCKK), with 141 Ru; and 6mer-2-229 (RWQSKK), with 127 Ru. For 6mer-2-230 (RWIQRR), the Binding affinity under setting [1] is listed as 135 Ru. The same measure, in the same setting: then 6mer-2-231 (KGISKK), with 144 Ru; and 6mer-2-232 (KQFTRK), with 135 Ru. The same measure, in the same setting: then 6mer-2-234 (RSQTKR), with 142 Ru; and 6mer-2-235 (KLVRKK), with 136 Ru.

With 6mer-2-236 (KWQQKK), the Binding affinity under setting [1] stood at 131 Ru. Same read-out and setting: then 6mer-2-237 (RLVYKR), with 123 Ru; and 6mer-2-238 (RRRRRK), with 142 Ru; and 6mer-2-239 (RGQYKK), with 125 Ru. As for 6mer-2-240 (RRRCRK), the Binding affinity under setting [1] is on record as 142 Ru. As for 6mer-2-241 (KQLTKR), the Binding affinity under setting [1] was found to be 135 Ru. Same read-out and setting: then 6mer-2-242 (KSQRRR), with 135 Ru; and 6mer-2-243 (KRVLKR), with 148 Ru; and 6mer-2-244 (RRFSKR), with 139 Ru. The same measure, in the same setting: then 6mer-2-245 (RSLSKR), with 135 Ru; and 6mer-2-246 (KWISKK), with 123 Ru.
